Assay results reported in patent US20220305006.

What was measured:
[1] = molecular target: T1, Peptide 65007
T1 chain: ALYPYFLPISAK

[2] = molecular target: BACE inhibitor 1 (statine BACE inhibitor 1)
[3] = molecular target: recombinant sAPPα, human, amino acids 19-613, P05067
[4] = molecular target: T2, Peptide 65005
T2 chain: NLTTYPYFIPL

recombinant sAPPα, human, amino acids 19-613, P05067, sequence (P05067 19-613): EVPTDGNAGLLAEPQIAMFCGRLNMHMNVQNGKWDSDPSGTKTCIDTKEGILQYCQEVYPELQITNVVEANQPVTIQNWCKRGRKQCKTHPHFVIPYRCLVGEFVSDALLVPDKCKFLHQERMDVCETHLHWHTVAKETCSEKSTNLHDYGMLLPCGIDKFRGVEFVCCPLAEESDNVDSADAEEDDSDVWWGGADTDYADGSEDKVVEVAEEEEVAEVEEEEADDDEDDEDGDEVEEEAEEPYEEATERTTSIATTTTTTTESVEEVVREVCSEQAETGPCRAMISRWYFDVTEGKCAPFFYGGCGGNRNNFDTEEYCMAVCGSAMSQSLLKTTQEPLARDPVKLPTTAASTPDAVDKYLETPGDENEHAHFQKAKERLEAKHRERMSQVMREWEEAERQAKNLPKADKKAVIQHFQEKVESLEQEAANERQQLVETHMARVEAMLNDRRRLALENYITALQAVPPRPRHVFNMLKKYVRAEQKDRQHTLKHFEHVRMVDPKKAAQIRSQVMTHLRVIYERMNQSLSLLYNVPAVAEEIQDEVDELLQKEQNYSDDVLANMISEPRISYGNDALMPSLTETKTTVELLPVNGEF

B1: BACE in mouse primary cortical neurons (protein)
chain: ETDEESEEPGRRGSFVEMVDNLRGKSGQGYYVEMTVGSPPQTLNILVDTGSSNFAVGAAPHPFLHRYYQRQLSSTYRDLRKGVYVPYTQGKWEGELGTDLVSIPHGPNVTVRANIAAITESDKFFINGSNWEGILGLAYAEIARPDDSLEPFFDSLVKQTHIPNIFSLQLCGAGFPLNQTEALASVGGSMIIGGIDHSLYTGSLWYTPIRREWYYEVIIVRVEINGQDLKMDCKEYNYDKSIVDSGTTNLRLPKKVFEAAVKSIKAASSTEKFPDGFWLGEQLVCWQAGTTPWNIFPVISLYLMGEVTNQSFRITILPQQYLRPVEDVATSQDDCYKFAVSQSSTGTVMGAVIMEGFYVVFDRARKRIGFAVSACHVHDEFRTAAVEGPFVTADMEDCGYNIPQTDESTLMTIAYVMAAICALFMLPLCLMVCQWRCLRCLRHQHDDFADDISLLK
CHL1 and L1CAM cleavage (uncleaved substrate/α-tubulin OD ratio, immunoblot), 10 µM, 24 hours [1]: only BACE Inh 4 (blue) clearly inhibited cleavage; BACE Inh 1, peptides 65005 and 65007 and sAPPα did not
uncleaved NrCAM and neurofascin (immunoblot), 10 µM, 24 hours [1]: none of the other inhibitors increased the amount of uncleaved NrCAM or neurofascin substrate
CHL1 and L1CAM cleavage (uncleaved substrate/α-tubulin OD ratio, immunoblot), 10 µM, 24 hours [2]: only BACE Inh 4 (blue) clearly inhibited cleavage; BACE Inh 1, peptides 65005 and 65007 and sAPPα did not
uncleaved neurofascin (immunoblot), 10 µM, 24 hours [2]: Only BACE Inh 4 and BACE Inh 1 treatment resulted in an increase of uncleaved NrCAM or neurofascin, respectively
CHL1 and L1CAM cleavage (uncleaved substrate/α-tubulin OD ratio, immunoblot), 1 µM, 24 hours [3]: only BACE Inh 4 (blue) clearly inhibited cleavage; BACE Inh 1, peptides 65005 and 65007 and sAPPα did not
uncleaved NrCAM and neurofascin (immunoblot), 1 µM, 24 hours [3]: none of the other inhibitors increased the amount of uncleaved NrCAM or neurofascin substrate
CHL1 and L1CAM cleavage (uncleaved substrate/α-tubulin OD ratio, immunoblot), 10 µM, 24 hours [4]: only BACE Inh 4 (blue) clearly inhibited cleavage; BACE Inh 1, peptides 65005 and 65007 and sAPPα did not
uncleaved NrCAM and neurofascin (immunoblot), 10 µM, 24 hours [4]: none of the other inhibitors increased the amount of uncleaved NrCAM or neurofascin substrate
